In publication doi:10.1101/2024.10.07.616643 one finds Kd data, which are given here for one substance.

This test deals with F-actin (rabbit skeletal muscle α-actin filaments) (rabbit) (UniProt P68135). Briefly: co-sedimentation.

The Kd is the concentration at which binding is half-saturated.

As to F-tractinopt-mCherry (peptide), the Kd was 8.5 µM.
